# Data reported in publication PMC5885369, “2-Oxoglutarate regulates binding of hydroxylated hypoxia-inducible factor to prolyl hydroxylase domain 2† †Electronic supplementary information (ESI) available: Details of experimental procedures and additional experiments. See DOI: 10.1039/c8cc00387d” (Chemical Communications (Cambridge, England), 2018).
# Square brackets hold non-standard residues; d marks the D form. Ends that are not written are not given here. Hyp = O=C(O)[C@@H]1C[C@@H](O)CN1
# Molecular target: T1, prolyl hydroxylase domain 2, PHD2_(181–426) (human, UniProt Q9GZT9 181-426)
# T1 construct: Used apo, or with Fe(II), Zn(II), 2OG, succinate or fumarate; also called tPHD2; apo-tPHD2; source: recombinantly expressed
# Assay: ITC; apo-tPHD2
# Details: both partners purified
# T1 sequence (Q9GZT9 181-426): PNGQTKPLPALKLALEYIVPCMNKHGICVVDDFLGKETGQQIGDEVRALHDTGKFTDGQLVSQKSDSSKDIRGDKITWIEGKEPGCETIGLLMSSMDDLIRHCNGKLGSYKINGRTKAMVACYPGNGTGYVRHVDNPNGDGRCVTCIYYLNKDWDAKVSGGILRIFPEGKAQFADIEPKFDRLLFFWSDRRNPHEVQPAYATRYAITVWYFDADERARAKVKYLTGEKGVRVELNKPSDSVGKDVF
binder,measurement,value
DLDLEMLA[Hyp]YIPMDDDFQL [hydroxylated 19-mer HIF-1α CODD peptide],Kd,4.6 ± 1.4 µM
